In patent US20020039776 one finds HMTase activity data, which are given here for two proteins.

This series deals with free histones (mixture of H1, H3, H2B, H2A and H4; Boehringer Mannheim).

B1: GST-CLR4(127-490) (protein)
chain: KQSTALTTNDTSIILDDSLHTNSKKLGKTRNEVKEESQKRELVSNSIKEATSPKTSSILTKPRNPSKLDSYTHLSFYEKRELFRKKLREIEGPEVTLVNEVDDEPCPSLDFQFISQYRLTQGVIPPDPNFQSGCNCSSLGGCDLNNPSRCECLDDLDEPTHFAYDAQGRVRADTGAVIYECNSFCSCSMECPNRVVQRGRTLPLEIFKTKEKGWGVRSLRFAPAGTFITCYLGEVITSAEAAKRDKNYDDDGITYLFDLDMFDDASEYTVDAQNYGDVSRFFNHSCSPNIAIYSAVRNHGFRTIYDLAFFAIKDIQPLEELTFDYAGAKDFSPVQSQKSQQNRISKLRRQCKCGSANCRGWLFG
Regarding B1, the HMTase activity entry is “The SU(VAR)3-9 family members assayed, SUV39H1, Suv39h2 and CLR4, displayed HMTase activity”.

B2: GST-SUV39H1(82-412) (protein)
chain: CVRILKQFHKDLERELLRRHHRSKTPRHLDPSLANYLVQKAKQRRALRRWEQELNAKRSHLGRITVENEVDLDGPPRAFVYINEYRVGEGITLNQVAVGCECQDCLWAPTGGCCPGASLHKFAYNDQGQVRLRAGLPIYECNSRCRCGYDCPNRVVQKGIRYDLCIFRTDDGRGWGVRTLEKIRKNSFVMEYVGEIITSEEAERRGQIYDRQGATYLFDLDYVEDVYTVDAAYYGNISHFVNHSCDPNLQVYNVFIDNLDERLPRIAFFATRTIRAGEELTFDYNMQVDPVDMESTRMDSNFGLAGLPGSPKKRVRIECKCGTESCRKYLF
Consider B2, for which the HMTase activity result was “The SU(VAR)3-9 family members assayed, SUV39H1, Suv39h2 and CLR4, displayed HMTase activity”.
